Positions count from the first letter of the chain named. Ends that are not written are not given here. carboxifluorescein = carboxyfluorescein

The source of these data is publication PMC5515355, “Frizzled 7 and PIP2 binding by syntenin PDZ2 domain supports Frizzled 7 trafficking and signalling” (Nature Communications, 2016).

Assay [1] addresses syntenin PDZ1–PDZ2 tandem (amino acids 107–275), wild type (human) (UniProt O00560). Description: ITC; VP-ITC; Frizzled 7 peptide (1.0 mM) injected (32 x 8 μl) into PDZ1–PDZ2 tandem (30–60 μM); 10 mM Mes pH 7.0, 5 mM β-mercaptoethanol; binary sequential binding model. (In general: ITC needs no label: the signal is the heat of the interaction.)
Assay [2] has as its target T1, syntenin PDZ1–PDZ2 tandem (amino acids 107–275), wild type (human, UniProt O00560 107-275).
T1 construct: syntenin, PDZ1–PDZ2 tandem, amino acids 107–275; also called PDZ tandem of syntenin; PDZ1–PDZ2 tandem wild-type; source: ER2566 cells (pETM-11 vector), purified; not shown: His6, N-terminal, kept
T1 sequence (looked up): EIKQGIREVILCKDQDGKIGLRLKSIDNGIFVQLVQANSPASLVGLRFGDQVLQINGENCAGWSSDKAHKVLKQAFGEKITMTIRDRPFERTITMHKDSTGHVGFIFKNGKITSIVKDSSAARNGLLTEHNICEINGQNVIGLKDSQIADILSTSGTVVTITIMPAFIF
Description: crystal structure; PDZ tandem co-crystallised with C4-PIP2 and the Frizzled 7 sixmer, molar ratio protein:lipid:peptide 10:23:23; 2.45 Å. The following applies: both partners purified.

For assay [3], the target named is T2, syntenin PDZ2 domain (residues 196–275), wild type (human, UniProt O00560 196-275).
T2 construct: syntenin, PDZ2 domain, amino acids 196–275; also called PDZ2 wild type; source: ER2566 cells (pETM-11 vector), purified recombinant; not shown: His6, N-terminal, kept
T2 sequence (looked up): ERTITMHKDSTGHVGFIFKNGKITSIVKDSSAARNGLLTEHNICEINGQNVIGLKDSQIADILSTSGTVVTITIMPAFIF
Description: SPR; competition: PDZ2 wild type (30 μM) incubated with 0–4 mM 6mer Frizzled 7 peptide (KGETAV), then perfused over the Frizzled 7 peptide immobilised on a BIAcore streptavidin chip; equilibrium responses. As to conditions: both partners purified. (In general: Surface plasmon resonance follows binding to a sensor surface in real time, without labels.)

Assay [4] has as its target T2, syntenin PDZ2 domain (residues …). In words: SPR; BIAcore T200, 25 °C; biotinylated Frizzled 7 19mer peptides (100 RU) immobilised on a streptavidin chip, His-tagged syntenin proteins as analytes; 10 mM HEPES pH 7.4, 150 mM NaCl, 0.005% Tween 20; equilibrium titration, apparent KD; without IP3. As to conditions: both partners purified.
The target of assay [5] is T1, syntenin PDZ1–PDZ2 tandem (amino acids …). Description: SPR; as a3, but the syntenin protein pre-incubated with 0.5 mM Ins(1,4,5)P3 (IP3, PIP2 head group) before perfusion; apparent KD. As to conditions: both partners purified.
The target in assay [6] is T2, syntenin PDZ2 domain (residues …). The assay is described as above. The following applies: both partners purified.
For assay [7], the target named is T3, syntenin PDZ2 domain (196–275) K214A (human, UniProt O00560 196-275, K214A).
T3 construct: syntenin, PDZ2 domain, amino acids 196–275, K214A; also called PDZ2 single mutant K214A; source: ER2566 cells (pETM-11 vector), purified; not shown: His6, N-terminal, kept
T3 sequence (looked up): T2 sequence (looked up) with K19A
The description is as above. As to conditions: both partners purified.

Assay [8] addresses T4, syntenin PDZ2 domain (196–275) N215D (human, UniProt O00560 196-275, N215D).
T4 construct: syntenin, PDZ2 domain, amino acids 196–275, N215D; also called PDZ2 single mutant N215D; source: ER2566 cells (pETM-11 vector), purified; not shown: His6, N-terminal, kept
T4 sequence (looked up): T2 sequence (looked up) with N20D
Described as above. As to conditions: both partners purified.

Assay [9] concerns the target T1, syntenin PDZ1–PDZ2 tandem (amino acids …). In words: SPR; BIAcore T200, 25 °C; biotinylated Frizzled 7 19mer peptides (100 RU) immobilised on a streptavidin chip, His-tagged syntenin proteins as analytes; 10 mM HEPES pH 7.4, 150 mM NaCl, 0.005% Tween 20; equilibrium titration, apparent KD; without IP3. The following applies: both partners purified.
Assay [10] concerns the target T5, syntenin PDZ1–PDZ2 tandem (107–275) mutant K214A/K250A (human, UniProt O00560 107-275, K214A | K250A).
T5 construct: syntenin, PDZ1–PDZ2 tandem, amino acids 107–275, K214A and K250A; PDB 4Z33 holds the wild-type parent of the same limits; also called PDZ1–PDZ2 tandem mutant K214A/K250A; K214A/K250A mutant tandem; source: ER2566 cells (pETM-11 vector), purified; not shown: His6, N-terminal, kept
T5 sequence (looked up): T1 sequence (looked up) with K108A, K144A
The assay is described as above. As to conditions: both partners purified.

The target in assay [11] is T6, syntenin PDZ2 domain (196–275) K250A (human, UniProt O00560 196-275, K250A).
T6 construct: syntenin, PDZ2 domain, amino acids 196–275, K250A; also called PDZ2 single mutant K250A; source: ER2566 cells (pETM-11 vector), purified; not shown: His6, N-terminal, kept
T6 sequence (looked up): T2 sequence (looked up) with K55A
The description is as above. As to conditions: both partners purified.

The target in assay [12] is T7, syntenin PDZ2 domain (196–275) K214A/K250A (human, UniProt O00560 196-275, K214A | K250A).
T7 construct: syntenin, PDZ2 domain, amino acids 196–275, K214A and K250A; also called PDZ2 double mutant; PDZ2 mutant K214A/K250A; source: ER2566 cells (pETM-11 vector), purified; not shown: His6, N-terminal, kept
T7 sequence (looked up): T2 sequence (looked up) with K19A, K55A
The description is as above. As to conditions: both partners purified.

Assay [13] has as its target T1, syntenin PDZ1–PDZ2 tandem (amino acids …). In words: MST; as a7, in the presence of Ins(1,4,5)P3 head group (concentration not stated); fit of Hill's equation. The following applies: both partners purified.

In assay [1], “8mer C-terminal peptide from Frizzled 7 (from UniProt O75084 567-574)” showed a KD of the first site (binary sequential binding model) of 20.5 µM and a KD of the second site (binary sequential binding model) of 4.3 µM.

B1: C-terminal hexapeptide of Frizzled 7 (KGETAV) (peptide)
peptide: KGETAV
notes: Frizzled 7, C-terminal six residues; K-5 is lysine 569; also called Fz7(6mer); 6mer Frizzled 7 peptide
For B1, the binding result in assay [2] and in assay [3] was “binds” in each case.

B2: Frizzled 7 K-5A mutant 19mer, biotinylated (SWRRFYHRLSHSSAGETAV) (peptide)
peptide: SWRRFYHRLSHSSAGETAV
modifications: also: biotinylated, position not given here
notes: Frizzled 7, last 19 residues with the lysine at position -5 (lysine 569) replaced by alanine; Immobilised on a streptavidin sensor chip; also called Frizzled 7 K-5A 19mer; source: synthetic peptide, GenScript
Consider B2, for which, in assay [4], the binding result was “binds”.

B3: Frizzled 7 wild-type 19mer, biotinylated C-terminal peptide (SWRRFYHRLSHSSKGETAV) (peptide)
peptide: SWRRFYHRLSHSSKGETAV
modifications: also: biotinylated, position not given here
notes: Frizzled 7, last 19 residues, part of the cytoplasmic domain; K-5 is lysine 569; Immobilised on a streptavidin sensor chip; also called 19 amino acids C-terminal peptide from Frizzled 7; Frizzled 7 19mer; source: synthetic peptide, GenScript
On to B3, for which the Kd in assay [5] was determined as 2 µM; in assay [6] it was 5 µM; in [9], 8 µM; in [4], 32 µM. The binding result in assay [7], in [8], in assay [10], in [11] and in assay [12] was “binds” each time.

B4: 6mer C-terminal peptide from Frizzled 7, N-terminally labelled with carboxifluorescein (peptide)
peptide: carboxifluorescein-KGETAV
notes: Frizzled 7, C-terminal six residues; also called Frizzled 7 peptide (microscale thermophoresis); source: synthetic peptide (chemically synthesized, JPT, Germany)
Consider B4, for which the Kd in [13] amounted to 1.2 µM.
